Results taken from patent US10480012B2, “CYP-P22 biocatalytic nanoparticles with cytochrome P450 activity for prodrug activation” (UNIVERSIDAD NACIONAL AUTÓNOMA DE MÉXICO, priority 2015, dated 2019).

Experiments:
trypsin = experiment: Stability to protease degradation (trypsin), residual activity; type: physicochemical; details: 10 U trypsin per mg protein, room temperature
Procedure: For proteolysis assays, the encapsulated and free enzyme was treated with 10 U of trypsin per mg protein, incubating for 1 and 20 h at room temperature. At the end of each time, an aliquot was taken out of the sample and the residual activity was measured in 100 mM Tris-HCl buffer pH 8 using 500 μM 2,6-DMP as substrate and initiating the reaction with 5 mM H2O2.

[1] = Temperature stability, activity retention at 40 and 50° C.; type: physicochemical
Procedure: Stability of encapsulated CYP and the free enzyme was determined by measuring the percentage of activity retention at different times when the protein was incubated at 40 and 50° C. in a water bath. Incubation times for each of the temperatures were 0, 5, 10, 15 and 30 min. At the end of each time, an aliquot was removed from the sample, centrifuged for 1 min at 16,000×g and left to rest for 10 min to temper the sample before measuring activity. Catalytic activity was measured in a final volume of 0.1 mL in 100 mM Tris-HCl buffer pH 8 using 500 μM 2,6-DMP as substrate and initiating the reaction with 5 mM H2O2.

pH activity profile = type: biochemical; details: 500 μM 2,6-DMP, 5 mM H2O2
Procedure: To determine the activity profile at different pH values for the encapsulated and free enzyme, catalytic activity was measured at the following pHs: 5 (100 mM sodium acetate), 6 (100 mM potassium phosphate}, 7, 8 and 9 (100 mM Tris-HCl), 10 (100 mM borates). Catalytic activity was measured in a final volume of 0.1 mL using as substrate 500 μM 2,6-DMP and initiating the reaction with 5 mM H2O2.

[2] = Kinetic parameters of encapsulated and free CYP with 2,6-DMP and H2O2; type: biochemical
Procedure: To calculate the kinetic parameters using 2,6-DMP as a substrate, two curves were constructed with two different concentrations of hydrogen peroxide, 5 mM and 60 mM. Reactions were carried out in 0.1 mL (50 mM Tris-HCl pH 8) with the following phenol concentrations: 10, 25, 50, 125, 250 and 500 μM. The reaction was started by adding 5 mM or 60 mM of H2O2. The amount of encapsulated enzyme used was 42.9 picomoles (assays with 5 mM H2O2) and 21.45 picomoles (assays with 60 mM H2O2); the amount of protein was determined by a concentration assay, specific for CYP450, for binding to CO. The catalytic activity was spectrophotometrically monitored at 468 nm (ε468=14800 M^−1 cm^−1 using an Agilent 8453 UV-vis spectrophotometer. Catalytic constants were obtained through the GraphPad Prism 6 program.
H) Catalytic capacity of P22 capsids with CYP inside is evaluated. Reactions were carried out in 0.1 mL (50 mM Tris-HCl pH 8) with the following phenol concentrations: 10, 25, 50, 125, 250 and 500 μM. The reaction was started by adding 5 mM or 60 mM of H2O2. The amount of encapsulated enzyme used was 42.9 picomoles, the amount of protein was determined by a CO binding assay specific for CYP450. Catalytic activity was spectrophotometrically monitored at 468 nm (ε468=14800 M^−1 cm^−1). […] The encapsulated enzyme follows a Michaelis-Menten kinetics as does free CYP.

[3] = tested on: human MCF7 breast cancer cells; experiment: CYP activity in tumor cells treated with nanoparticles (BFC fluorescence assay); type: cell-based; details: 100 μM BFC, fluorescence images
Procedure: I) The presence of biocatalytic nanoparticles (loaded nanoparticles) with CYP activity is evaluated in transformation of 7-benzyloxy-4-trifluorometyl-coumarin (BFC) monitored by fluorescence according to the method of Donato et al.. The fluorescence assay for determining CYP activity is performed with a direct incubation of cultured tumor cells in a 12-well plate in the presence of BFC 100 μM. […] After 60 min incubation at 37° C. the incubation medium is removed and the conjugated products of CYP transformation will be hydrolyzed with a mixture of 3-giucoronidase/arylsulfatase for 2 hours at 37° C. Finally, samples are diluted with the corresponding solution and product fluorescence (7-hydroxy-4-trifluoromethylcoumarin, HFC) is quantified in a spectrofluorimeter with 410 nm excitation and 510 nm emission.
J) Affinity evaluation of functionalized loaded nanoparticles in tumor cells in vitro is carried out in human MCF7 breast cancer cells that are maintained in DMEM medium (Dulbecco's Modified Eagle's Medium) supplemented with 10% fetal bovine serum. […] The presence of biocatalytic nanoparticles (CYP-P22) with CYP activity is evaluated in the transformation of 7-benzyloxy-4-trifluoromethyl-coumarin (BFC) monitored by fluorescence according to the method of Donato et al.. […]

B1: CYP-P22: cytochrome P450 (CYPBM3 “21B3” fused to scaffold protein) encapsulated in a bacteriophage P22 nanocapsid (protein)
chain: MAIKEMPQPKTFGELKNLPLLNTDKPVQALMKIADELGEIFKFEAPGRVTRYLSSQRLVKEACDESRFDKNLSQALKFVRDFAGDGLATSWTHEKNWKKARNILLPSLSQQAMKGYHAMMVDIAVQLVQKWERLNSDEKIEVPEDVTRLTLDTIGLCGFNYRFNSFYRDQPHPFITSMVRALDEAMNKLQRANPDDPAYDENKRQFQEDIKVMDLVDKIIADRKASGEQSDDLLTHMLHGKDPETGEPLDDENIRYQIITFLIAGHETTSGLLTFALYFLVKNPHVLQKAAEEAARVLVDPVPSYKQVKQLKYVGMVLNEALRLWPTAPAFSLYAKEDTVLGGEYPLEKGDELMVLIPQLHRDKTIWGDDVEEFRPERFENPSAIPQHAFKPFGNGQRACIGQQFALHEATLVLGMMLKHFDFEDHTNYELDIEETLTLKPEGFVIKAKSKKIPLGGIPSPSTGSLVPRGSCRSNAVAEQGRKTQEFTQQSAQYVEAARKHYDAAEKLNIPDYQEKEDAFMQLVPPAVGADIMRLFPEKSAALMYHLGANPEKARQLLAMDGQSALIELTRLSERLTLKPRGKQISSAPHADQPITGDVSAANKDAIRKQMDAAASKGDVETYRKLKAKLKGIR
With B1 the “activity retained after incubation with trypsin” value (trypsin; 1 hour) was 96%, the “activity retained after incubation with trypsin” value (trypsin; 20 hours) was 38% and the “stability compared with free enzyme” value ([1]; 40° C.) was “practically the same”. For the same molecule, the “inactivation compared with free CYP” value ([1]; 50° C.) was “even faster than that found for free CYP”, the “pH of optimum activity” value (pH activity profile) was “pH 8 and 9” and the “catalytic activity using 2,6-DMP and H2O2 as substrates” value [2] was “catalytically active”. The kcat app ([2]; substrate 2,6-DMP, 5 mM H2O2, 50 mM Tris-HCl pH 8) was 127.2 (±2.3) min^−1 and the “cytochrome P450 activity in treated tumor cells versus endogenous activity in untreated cells” value [3] was “much greater”.
